Test results as given in article PMC3584063, “Biochemical and Functional Studies on the Burkholderia cepacia Complex bceN Gene, Encoding a GDP-D-Mannose 4,6-Dehydratase” (PLoS ONE, 2013).

How the values were obtained:
[1] = biological target: 6×His-tagged BceN protein of Burkholderia cenocepacia J2315 (GDP-D-mannose 4,6-dehydratase) (Burkholderia cenocepacia J2315); assay: native gel or EMSA; discontinuous native PAGE, 8% polyacrylamide, 200 mM Tris-Cl pH 8.8, 4°C, 100 V, 2 h; 6 µg purified 6×His-tagged BceN; aliquot with GMD activity; mass standards catalase, aldolase, BSA, ovalbumin
[2] = biological target: T1, BceN (GDP-D-mannose 4,6-dehydratase) (Burkholderia cenocepacia, UniProt B4EFL2); assay: 1H NMR enzyme kinetics with purified protein (substrate turnover and substrate inhibition), […]°C, pH […]; format: biochemical
T1 construct: gene gca; full-length, C-terminally 6×His-tagged BceN, tetramer

Row | stoichiometry N [1] | Compound | Ki [2]
1 | 4 | 6×His-tagged BceN protein of Burkholderia cenocepacia J2315 (GDP-D-mannose 4,6-dehydratase) (enzyme) | 
2 |  | Nc1nc2c(ncn2[C@@H]2O[C@H](COP(=O)(O)OP(=O)(O)O[C@H]3O[C@H](CO)[C@@H](O)[C@H](O)[C@@H]3O)[C@@H](O)[C@H]2O)c(=O)[nH]1 [A, GDP-D-mannose] | 2910 ± 350 µM
